The source of these data is patent US20050233350A1.

Assay [1] addresses T1, recombinant HLA-A2.1 protein with β2-microglobulin (human). Briefly: cell free HLA-A2.1 peptide binding (competition) assay, HA-1^R against HA-1^H. The note with it: remark: other sources report otherwise.
For assay [2], the target named is T1, recombinant HLA-A2.1 protein with …. Description: cell free competition assay: inhibition of binding of fluorescent [..] to recombinant HLA-A2.1 and β2-microglobulin, gel filtration, 4 experiments. The note with it: remark: other sources report otherwise.

B1: HA-1^R peptide … (allelic counterpart of HA-1, synthetic) (peptide)
peptide: VLRDDLLEA
What is called IC50 is the midpoint of a concentration-inhibition curve. As to B1, the fold lower binding affinity against the HA-1^H peptide in assay [1] was 10 fold. Further, the half-inhibitory concentration (IC50) in assay [2] was 365 nM.

B2: HA-1^H peptide … (minor histocompatibility antigen HA-1 nonapeptide, synthetic) (peptide)
peptide: VLHDDLLEA
Consider B2, for which the IC50 in assay [2] came to 30 nM.
